Experimental data from US20260055172A1.

Biological target: human complement protein C1q (human) (UniProt P02745)
Experiment: ELISA, 10 µg/ml human C1q, detection with HRP-conjugated anti-C1q antibody, antibody concentration varied

human complement protein C1q (human), sequence (P02745 23-245 limits assumed, chain 1 of 3): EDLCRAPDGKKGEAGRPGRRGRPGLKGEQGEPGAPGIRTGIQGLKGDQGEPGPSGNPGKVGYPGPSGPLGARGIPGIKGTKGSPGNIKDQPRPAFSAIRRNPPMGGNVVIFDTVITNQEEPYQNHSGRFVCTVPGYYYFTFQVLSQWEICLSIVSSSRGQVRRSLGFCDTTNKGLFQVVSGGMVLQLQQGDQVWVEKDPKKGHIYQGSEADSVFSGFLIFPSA
human complement protein C1q (human), sequence (P02746 28-253 limits assumed, chain 2 of 3, further chain): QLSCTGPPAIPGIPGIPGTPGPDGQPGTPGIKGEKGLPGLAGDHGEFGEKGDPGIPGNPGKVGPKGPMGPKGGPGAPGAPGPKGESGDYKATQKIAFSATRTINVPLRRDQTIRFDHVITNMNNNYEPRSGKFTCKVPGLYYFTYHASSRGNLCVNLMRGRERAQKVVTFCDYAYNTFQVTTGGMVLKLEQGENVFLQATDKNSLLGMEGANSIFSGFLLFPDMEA
human complement protein C1q (human), sequence (P02747 29-245 limits assumed, chain 3 of 3, further chain): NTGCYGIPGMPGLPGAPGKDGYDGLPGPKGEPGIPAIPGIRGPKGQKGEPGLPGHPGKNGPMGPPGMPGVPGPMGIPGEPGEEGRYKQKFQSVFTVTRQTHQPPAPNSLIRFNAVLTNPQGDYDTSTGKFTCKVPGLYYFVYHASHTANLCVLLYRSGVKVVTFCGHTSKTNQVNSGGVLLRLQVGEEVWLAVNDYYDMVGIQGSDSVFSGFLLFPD

Rituximab (antibody)
EC50 (read off the curve): 2 µg/mL
